Measurements reported in patent US20070014767A1.

Columns and labels:
[1] = target: TGFβ1 (human recombinant) (human) (UniProt P01137); experiment: affinity labelling of MV-1-Lu cells with 125I-TGFβ1, titration of P144; conditions: scale: times the molar concentration of 125I-TGFβ1
[2] = target: TGFβ1 (human recombinant) (human) (UniProt P01137); experiment: cell-based or functional assay
[3] = target: TGFβ1 (human recombinant) (human) (UniProt P01137); experiment: flow cytometry; inhibition of binding of TGFβ1-biotin to MV-1-Lu cell receptors, peptide 420 µg/ml, peptide incubated with TGFβ1-biotin
[4] = target: TGFβ1 cell receptors on MV-1-Lu cells (mink); experiment: cell-based or functional assay
[5] = target: TGFβ1 cell receptors on MV-1-Lu cells (mink); experiment: flow cytometry; inhibition of binding of TGFβ1-biotin to MV-1-Lu cell receptors, peptide 420 µg/ml, peptide incubated with the cells

Chain of TGFβ1 (human recombinant) (human) (P01137 279-390 limits assumed): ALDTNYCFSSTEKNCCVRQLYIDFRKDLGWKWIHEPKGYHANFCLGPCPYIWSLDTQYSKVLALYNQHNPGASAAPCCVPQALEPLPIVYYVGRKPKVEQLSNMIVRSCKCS

Molecule	peptide concentration at which inhibition of 125I-TGFβ1 binding to the cell receptors is lost [1]	Bioassay (% inhibition) of TGFβ1 activity: growth of MV-1-Lu cells, TGFβ1 200 pg/ml, peptide 200 µg/ml [2] [%]	Cytometry (% inhibition) [3] [%]	Bioassay (% inhibition) of TGFβ1 activity: growth of MV-1-Lu cells, TGFβ1 200 pg/ml, peptide 200 µg/ml [4] [%]	Cytometry (% inhibition) [5] [%]
peptide P144(729-742)	200000	88	80	–	–
FCLGPCPYIWSLDTA [peptide P12(322-335)]	–	–	–	96	77
HANFCLGPCPYIWSLA [peptide P11(319-333)]	–	–	–	40	86
LYNQHNPGASAAPCCA [peptide P18(343-358)]	–	–	–	18.2	6.5
HEPKGYHANFCLGPCPYIWSLDT [peptide P29(313-335)]	–	–	–	77.6	92.3
